From paper PMC9753473 (The EMBO Journal, 2022)

T1: Chlamydomonas reinhardtii IFT81/74(128‐C) heterodimer (Chlamydomonas reinhardtii, UniProt Q68RJ5 1-683; Q6RCE1 128-641)
T1 sequence (looked up) 1: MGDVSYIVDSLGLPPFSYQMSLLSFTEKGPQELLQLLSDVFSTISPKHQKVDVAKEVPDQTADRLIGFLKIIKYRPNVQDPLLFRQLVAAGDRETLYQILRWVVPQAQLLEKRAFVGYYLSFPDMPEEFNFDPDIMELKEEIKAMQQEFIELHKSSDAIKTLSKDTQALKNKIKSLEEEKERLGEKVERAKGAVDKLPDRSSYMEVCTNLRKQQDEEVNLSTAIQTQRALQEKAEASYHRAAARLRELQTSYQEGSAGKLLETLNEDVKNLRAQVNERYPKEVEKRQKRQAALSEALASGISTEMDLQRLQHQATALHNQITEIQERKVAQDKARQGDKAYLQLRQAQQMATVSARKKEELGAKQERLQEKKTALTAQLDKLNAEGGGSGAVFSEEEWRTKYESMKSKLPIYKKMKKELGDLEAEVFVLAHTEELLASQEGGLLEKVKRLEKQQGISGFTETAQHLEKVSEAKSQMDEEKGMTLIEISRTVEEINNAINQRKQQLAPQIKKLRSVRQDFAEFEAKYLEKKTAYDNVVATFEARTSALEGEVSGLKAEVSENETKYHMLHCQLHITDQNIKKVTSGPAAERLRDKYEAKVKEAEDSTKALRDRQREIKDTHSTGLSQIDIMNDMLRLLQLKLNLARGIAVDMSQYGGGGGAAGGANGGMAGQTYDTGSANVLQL
T1 sequence (looked up) 2: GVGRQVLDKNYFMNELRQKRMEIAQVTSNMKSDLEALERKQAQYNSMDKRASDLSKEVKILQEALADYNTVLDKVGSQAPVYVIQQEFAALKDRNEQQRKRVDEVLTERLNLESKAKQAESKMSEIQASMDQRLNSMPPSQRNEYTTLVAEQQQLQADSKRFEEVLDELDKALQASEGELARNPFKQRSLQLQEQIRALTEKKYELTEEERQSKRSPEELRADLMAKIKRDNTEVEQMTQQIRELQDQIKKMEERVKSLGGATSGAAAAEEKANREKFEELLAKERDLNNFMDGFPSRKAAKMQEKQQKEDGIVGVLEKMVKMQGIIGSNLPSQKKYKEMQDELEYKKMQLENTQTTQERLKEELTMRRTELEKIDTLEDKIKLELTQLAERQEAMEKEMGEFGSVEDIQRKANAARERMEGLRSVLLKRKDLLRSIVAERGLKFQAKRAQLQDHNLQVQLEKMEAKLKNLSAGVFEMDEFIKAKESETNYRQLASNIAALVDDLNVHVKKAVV

T2: CrIFT172(1–968) (Chlamydomonas reinhardtii, UniProt Q5DM57 1-968)
T2 sequence (looked up): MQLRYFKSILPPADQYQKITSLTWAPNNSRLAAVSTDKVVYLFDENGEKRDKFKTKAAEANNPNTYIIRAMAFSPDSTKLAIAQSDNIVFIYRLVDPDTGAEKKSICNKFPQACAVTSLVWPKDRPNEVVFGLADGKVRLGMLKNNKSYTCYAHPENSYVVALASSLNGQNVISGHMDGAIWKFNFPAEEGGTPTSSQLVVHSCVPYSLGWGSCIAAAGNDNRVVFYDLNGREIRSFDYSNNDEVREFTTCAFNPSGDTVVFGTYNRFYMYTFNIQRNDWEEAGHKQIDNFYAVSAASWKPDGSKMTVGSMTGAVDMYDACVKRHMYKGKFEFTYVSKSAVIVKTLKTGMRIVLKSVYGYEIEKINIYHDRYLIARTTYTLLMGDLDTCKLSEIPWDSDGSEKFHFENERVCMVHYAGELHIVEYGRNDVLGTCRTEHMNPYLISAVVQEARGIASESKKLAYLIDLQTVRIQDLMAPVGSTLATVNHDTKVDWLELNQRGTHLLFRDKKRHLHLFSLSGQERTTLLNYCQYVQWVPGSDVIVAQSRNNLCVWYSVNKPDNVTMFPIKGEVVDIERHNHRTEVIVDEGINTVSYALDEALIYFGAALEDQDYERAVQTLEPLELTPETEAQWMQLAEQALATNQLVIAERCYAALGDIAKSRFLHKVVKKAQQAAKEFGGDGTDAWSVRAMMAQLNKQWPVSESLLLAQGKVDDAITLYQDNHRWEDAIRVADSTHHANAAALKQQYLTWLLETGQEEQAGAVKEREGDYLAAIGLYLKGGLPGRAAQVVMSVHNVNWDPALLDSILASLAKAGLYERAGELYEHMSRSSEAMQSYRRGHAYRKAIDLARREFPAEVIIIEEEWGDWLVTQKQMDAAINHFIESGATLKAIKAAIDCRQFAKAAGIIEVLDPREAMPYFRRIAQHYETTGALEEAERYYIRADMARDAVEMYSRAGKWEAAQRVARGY

T3: Chlamydomonas reinhardtii IFT81 (Chlamydomonas reinhardtii, UniProt Q68RJ5 1-683)
T3 sequence (looked up): T1 sequence (looked up) 1

B1: Chlamydomonas reinhardtii IFT27 (natural protein)
chain: MVKKEVKPIDITATLRCKVAVVGEATVGKSALISMFTSKGSKFLKDYAMTSGVEVVVAPVTIPDTTVSVELFLLDTAGSDLYKEQISQYWNGVYYAILVFDVSSMESFESCKAWFELLKSARPDRERPLRAVLVANKTDLPPQRHQVRLDMAQDWATTNTLDFFDVSANPPGKDADAPFLSIATTFYRNYEDKVAAFQDACRNY
B2: Chlamydomonas reinhardtii IFT25(1–136) (domain or fragment, UniProt B8LIX8 1-136, looked up)
chain: MKDYAREENGGLVVMASCSDERFPPENMLDGKDNTFWVTTGMFPQEFVLRLESCIRVSKITTLSLNVRKLAVEKCDQDKPDQFEKVFEVELANRGDRLQTEVHQVNIRAKYLKFILLQGHGEFATVNRVSVVGGDD
B3: GST‐tagged CrIFT57(1–234) (domain or fragment, Chlamydomonas reinhardtii, UniProt Q2XQY7 1-234, looked up)
chain: MSSKRGGRSSLAKAPEEAVNGEAFAPEASPPPPGDDGDAGGEDGGAPAPPPPPATKGGPVAVGRSLEIQTTPDVCMEMLADKLKLLNYEADFCRKKKPYRKPLSRLYFAVPLANSSEQFFYFTSLATWLLGLAGVELPAPKEFDDPNLTCQNILGAVKKLGFAPPSYHPTKLTVGNGKEVVGVLDGLVDFVLERRHHKYSRPAYGNDGQPEEGVQLDDEAEAAAMEGADELAMP
B4: Chlamydomonas reinhardtii IFT46(188–319) (domain or fragment, UniProt A2T2X4 188-319, looked up)
chain: QLRQLSKEAPGAKADMVGRLEHTDENKAKKIQQWIASINDIHKAKPAATVNYSKRMPEIEALMQEWPPEVETFLKTMHMPSGDVELDIKTYARLVCTLLDIPVYDDPVESLHVLFTLYLEFKNNPIFRQHME
B5: Chlamydomonas reinhardtii IFT74(128‐C) (domain or fragment, UniProt Q6RCE1 128-641, looked up)
chain: T1 sequence (looked up) 2

Key:
[1] = molecular target: T1, Chlamydomonas reinhardtii …; experiment: cross-linking
CrIFT172(1–968) = molecular target: T2, CrIFT172(1–968); experiment: pull-down
[2] = molecular target: B5; experiment: cross-linking
[3] = molecular target: T3, Chlamydomonas reinhardtii IFT81; experiment: cross-linking

Binder	binding result [1]	binding result [3]	also measured
B1	binds		
B2	binds		
B3			binding result (CrIFT172(1–968)): binds
B4		binds	binding result [2]: binds
B5		binds	
